One test addresses T1, Cynomolgus TL1A (cynomolgus monkey, UniProt G7PRK8 72-251).
T1 construct: also called cynomolgus monkey TL1A
T1 sequence: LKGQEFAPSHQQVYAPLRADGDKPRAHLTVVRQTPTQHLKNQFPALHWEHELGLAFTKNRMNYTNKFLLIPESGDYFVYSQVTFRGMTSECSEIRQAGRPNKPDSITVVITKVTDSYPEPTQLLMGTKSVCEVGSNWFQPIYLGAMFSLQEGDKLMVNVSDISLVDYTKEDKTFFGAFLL
The experiment in a line: method not given; three independent measurements, +/- standard deviation.

In test [1] the target is T2, human TL1A (human, UniProt O95150 72-251, limits assumed).
T2 construct: also called tumor necrosis factor-like cytokine 1A; TNFSF15
T2 sequence (looked up): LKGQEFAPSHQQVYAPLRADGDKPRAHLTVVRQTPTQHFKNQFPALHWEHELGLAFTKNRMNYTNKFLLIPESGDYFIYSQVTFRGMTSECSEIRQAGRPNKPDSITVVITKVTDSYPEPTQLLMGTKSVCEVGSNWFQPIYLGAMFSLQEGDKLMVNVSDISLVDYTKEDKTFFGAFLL
The test is described as above.

The target of test [2] is T3, TL1A in human blood (human, UniProt O95150 72-251, limits assumed).
T3 sequence (looked up): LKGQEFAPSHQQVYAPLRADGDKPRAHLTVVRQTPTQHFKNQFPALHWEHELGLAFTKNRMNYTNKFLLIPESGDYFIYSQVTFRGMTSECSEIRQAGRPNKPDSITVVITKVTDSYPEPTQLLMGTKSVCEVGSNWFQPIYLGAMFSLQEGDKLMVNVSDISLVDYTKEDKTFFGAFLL
Kind of test: cell-based or functional assay.

A further test concerns the target T4, TNFSF6 (FasL) (human, UniProt P48023 134-281, limits assumed).
T4 sequence (looked up): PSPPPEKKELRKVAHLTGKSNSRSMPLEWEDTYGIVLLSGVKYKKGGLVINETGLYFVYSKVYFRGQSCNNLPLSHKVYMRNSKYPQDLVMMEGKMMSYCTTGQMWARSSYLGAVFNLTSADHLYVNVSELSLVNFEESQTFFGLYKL
The experiment in a line: not named in the table (specificity row). The text has this: (§1) TL1A is the only known ligand for its functional receptor DR3. TL1A is also capable of binding to Decoy receptor 3 (DcR3), a soluble TNF receptor without a transmembrane domain.

For the next test, the target named is T5, TNFSF10 (human, UniProt P50591 114-281, limits assumed).
T5 construct: also called TRAIL
Kind of test: not named in the table (specificity row).
Excerpt: as §1

Test [3] deals with T3, TL1A in human blood. Kind of test: cell-based or functional assay. The source holds these as a separate data set.
For test [4], the target named is T2, human TL1A. Kind of test: ELISA titration on plate-coated human TL1A, unpurified culture supernatant.
The target in a further test is T6, Murine TL1A (mouse, UniProt Q5UBV8 76-252, limits assumed).
T6 construct: also called mouse TL1A
T6 sequence (looked up): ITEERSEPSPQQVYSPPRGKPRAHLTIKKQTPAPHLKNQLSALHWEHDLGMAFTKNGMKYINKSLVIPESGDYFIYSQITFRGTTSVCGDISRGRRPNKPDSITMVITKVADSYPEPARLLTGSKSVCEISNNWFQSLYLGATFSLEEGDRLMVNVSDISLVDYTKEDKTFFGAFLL
Kind of test: not named in the table (TL1A binding affinity row).

From US20260216326A1 (PROMETHEUS BIOSCIENCES, published 2026) come the findings set out here.

T5 sequence (P50591 114-281 limits assumed): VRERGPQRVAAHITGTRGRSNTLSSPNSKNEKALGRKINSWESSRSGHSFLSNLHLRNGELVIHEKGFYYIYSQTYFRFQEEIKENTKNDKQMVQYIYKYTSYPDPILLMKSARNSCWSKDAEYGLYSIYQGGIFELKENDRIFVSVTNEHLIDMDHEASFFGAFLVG

B1: A219 (antibody, V domains shown)
VH: QVQLVQSGAEVKKPGASVKVSCKASGFDIQDTYMHWVKQRPGQGLEWMGRIDPASGHTKYDPKFQVRVTITRDTSTSTVYLELSSLRSEDTAVYYCARSGGLPDVWGQGTTVTVSS
VL: EIVLTQSPGTLSLSPGERATLSCRASSSVSYMYWYQQKPGQAPRPLIYATSNLASGIPDRFSGSGSGTDFTLTISRLEPEDFAVYYCQQWEGNPRTFGGGTKLEIK
notes: IgG1
Regarding B1, the Kd was 0.0363 nM with Cynomolgus TL1A, 0.059 nM in the test with human TL1A [1] and 0.05 nM with human TL1A [4]. Also, the “% Inhibition at 1 nM Ig; interferon gamma release in human blood” value with TL1A in human blood [2] is 59.8%. For the same molecule, the “% Inhibition at 10 nM Ig; interferon gamma release in human blood” value with TL1A in human blood [2] came out at 75.2%. Moreover, the binding result in the test with TNFSF6 (FasL), with TNFSF10 and with Murine TL1A was “no binding” in each case. For the same molecule, the “IC50 values, Mean; inhibition of interferon gamma release from multiple human donors” value with TL1A in human blood [3] is 48.6.
